According to a protein production outcome set (Wang et al. 2014):

Assay: label from the status in PepcDB records

Sequence	protein production
MASLDEKWEAVDNFKSVVVDRERDVVRVTKELYDLHSNREQLRGVTSSCNYRLTIPFAPHHFGSGKTTFARTYLELVQRFGETSLSTFASDPLKRTFLEKLKRASLLYADLKELKPTDPKERNLEWAVYYLLIKAACLQSGLPQPDPDECFKELKLRSDALVQKIRSILNIPSDQYLLVAFDEVGVLDESLDEFHFKRTHDGRVRPYNDFFGIISQLCKEPDLFFIVVGKSKGLSIKNYVSSVSKVILHFISLSPLDASSIVEFLEKSLLKTPTQVPVCNVLCSSSFSVNELADSLLECTGGVPGLLTRAVNMLLNYIIARKFVLNHLWNEY	failed
EQAEAQLAELDLLASMFPGENELIVNDQLAVAELKDCIEKKTMEGRSSKVYFTINMNLDVSDEKMAMFSLACILPFKYPAVLPEITVRSVLLSRSQQTQLNTDLTAFLQKHCHGDVCILNATEWVREHASGYVSRDTSS	not failed
MHVLTLDLAPVTPKDAPLLHRVFHLSPSYFALIGMELPTLEDVVRDLQTLEVDPRRRAFLLFLGQEPVGYLDAKLGYPEAEDATLSLLLIREDHQGRGLGRQALERFAAGLDGVRRLYAVVYGHNPKAKAFFQAQGFRYVK	failed
MSLAKISKIEAQKRKGRYNIYLDGKYAFPVAESVLIQFRLMKGTELDEKQIAAIATADQQAKAYSRMLDYLSYQMRTESDIVKKLKEIDTPEEFVEPILKKLRGQQLIDDHAYAASYVRTMINTDLKGPGIIRQHLRQKGIGESDIDDALTQFTPEVQAELAKKLALKLFRRYRNQPERRREQKVQQGLTTKGFSSSVYEMIKDEVVPQPDLEEGHHHHHH	not failed
MNAGHLKEAAALYAEIVALNPGWEHGTALYSLACCYEDLGELTSAEECYRRALSYEPESPTFIGGLASFLHLHGSQS	failed
MEVNGEEERRSRREDEEKEDYYYSLLNSPCSVCNKFVQAILKCLGLESSSIPPSSSSSSPSLVEEEDSGTETVEETGFMARITAVLRRRPRPPPYSSGRPGQNN	not failed
MTVSQDILLTDHFKQWIEIFKKGKVSDGTYRKYLYTLSVLKKHFSTATIKTMNRVKYQEMLNEFAEGHSDSSVKQINVHVRASLENLLDDFIIKNDFTKGAISLEHHHHHH	not failed
SNTPSAEADWSPGLELHPDYKTWGPEQVCSFLRRGGFEEPVLLKNIRENEITGALLPCLDESRFENLGVSSLGERKKLLSYIQRLVQIHVDTMKVI	not failed
MRLAYVKNHEIYGEKLLGLTLRERIEKTLQRAGFDVRFFDELSLEEAEDYLIILEPVLILERDLLLEGRKILVSDGFTVGYFFGGDFRTVFDGNLQSSIEKYLSLNNLESYEIWAIKLSNDNLKTAEKLLLSSLIKAKRTGLKPAYYDGWIAREINRKVSLRISRLLADTSVTPNQITVFSFFLSLVGSALFLLNSYLTTLLAGVIIQLHSIIDGCDGEIARLKFMESKYGAWLDGVLDRYSDFIIVFSITYVLSASNPVYWIIGFLAAFASLMIAYTGDKFVAAYMRTYSPEGFAIPITRDFRLLIIFACSVVNLPSLALVIIALLGNFEALRRIVALRSYTN	failed
MVLSKTASKSDDSIHSTFASRYVRNSISRFEIPKNSIPKEAAYQIINDELKFDGNPRLNLASFVTTWMEPECDKLMMESINKNNVEMDQYPVTTDLQNRCVNMIARLFNAPLGDGEAAIGVGTVGSSEAVMLAGLAFKRQWQNKRKALGLPYDRPNIVTGANIQVCLEKFARYFEVELKEVKLREGYYVMDPDKAVEMVDENTICVVAILGSTLTGEFEDVKLLNDLLVEKNKKTGWDTPIHVDAASGGFIAPFLYPDLEWDFRLPLVKSINVSGHKYGLVYAGIGWVVWRTKTDLPDELIFHINYLGADQPTFTLNFSKGSSQVIAQYYQLIRLGFEGYRNVMDNCRENMMVLRQGLEKTGRFNIVSKENGVPLVAFSLKDSSRHNEFEVAEMLRRFGWIVPAYTMPADAQHVTVLRVVIREDFSRTLAERLVADFEKVLHELDTLPARVHAKMASGKVNGVKKTPEETQREVTAYWKKFVDTKTDKNGVPLVASITNQ	failed
MVHTPLNFKFSEKREEWNLRFCRNVGVSIVELVTADASSAYVRGLMAVNGSKVYSILPFISIDAEKAKKAKFPEDRMSGVRGKVIPSVLPEIKGETILDIGCGFGTLTMELAKNNPESQVYGIDLHDSLTGQAEMNAEVLGLPNVEFRTGSAYALPFEKDSIDAVTCFLMLHHLEDIKFALFEIKRVLKKGGSLTAVEPLAHQHHHGPQLSEAEWKELFEEAGFGTETENMEGAVVLRAVKRELEHHHHHH	failed
MDFECQFVCELKELAPVPALLIRTQTTMSELGSLFEAGYHDILQLLAGQGKSPSGPPFARYFGMSAGTFEVEFGFPVEGGVEGSGRVVTGLTPSGKAASSLYIGPYGEIEAVYDALMKWVDDNGFDLSGEAYEIYLDNPLEHHHHHH	failed
MEKILLERNWQDLEKLVLVSSKKAIRTLVNRIYIKDGLGFWRAVEALGVASALAEEQKKDSSVELVRRYFWSLNEESGGNAWNAAEAIGSIMASNPKECGHFNWMLANLLEDESLQEGTLWGLLNLSINAPEVVDPLVERVYPFLEARDVNQRGLAVWIFSLMKACPSAKERWEIEEELHKTLIQDQEMAEIYWEGEYYHFPVSELLGKEIVTFYAREYKQADFTWNISVASSQKGLCWVGLGTPEKEEGELRTWVQKRVPGSLVIPRALPNQKVMEQLEDYFSGIRQEFNLPLDPRGTDFQLKVWEELCRIPYGETRSYGEIAQNIGNPKGQRAVGLANNKNPIAIIIPCHRVVGKKGDLVGYASGLDHKVRLLNWEAAHRHQ	failed
MGLLGIVIALGAMIWLAFRGWSILIIAPAAALLAAATAGEPLLAHWTQTFMGTAAGFVAQFFPLFLLGALFGKLMDDSGSVTAIAEWMTRVLGPQRAMLAVVLAGALLTYGGVSLFVAFFVLAPMAHALFRAADIPPRLMPAAIVLGTSTFTMSALPGTPAIQNAIPMPFFSTTPFAAPGLGIVASAIMLTFGLWWLSQRENAARRRGEGYAIAEEEASPDEVAERPLIRELASTAREFDPAEALQGSRSDEPPAAFIALLPLAVVIVVNLLMSFVVLPRVDADYLGLPEWGATTLQAVSGVWSVIVALTAAILCLIALNFRRLPELRDSMGAGAHAAALPVLSVASLVGFGAVVASLPGFGVVRDWVLSIEGGPLVSLAVATNVLSALTGSASGGLTIALDALGGTYLTRAFDLGIDPAILHRVAVMSAGTLDTLPHNGAVVTLLAVCGATHRESYGGIVMVGIVGPMLALAAVIALGSWVGSF	failed
MMINMNRKITTYQWWIATLAIVSIFLIILDFAAVIDINIPTSKWFWINDGIVVYFAINYFYHLSKSNDKKTFFKNHIYDLLIIIPIGMLFVVLNAFNLSSLVSYLRLLRLIRLAGLMGKLRQIFHTNGLWYVVFFTITFLLVGAEAFAISEHVSLDTAFWWVLSTASTVGYDGIFGKTIPPHSIVGKFVTLVMMLLGIGIVGMLTSSITSYLVRRTNGANTLETHDNIELILKKLDDIEQQNKELTYQNKKLQAEIQTLKGEKNPLMSYIR	failed
RAKAFIDAANQYSINELYLISHALLETGNGTSALANGLTYNGKTVYNMYGIGAYDSNPNYYGAKYAYEQGWFTPEAAIIGGAKFIGSSYIHNTAYNQDTLYKMRWSATATHQYATDIGWAYKQVNRMYSLYSLLDG	not failed
MTSIHVQVPATTANIGAGFDCLGAALSLHNQFQFRLAGESEPFFSLELVGADVETQKLEATADNLLYRAFAKVFATLGQPVPHVNIAIDLKVPLSRGLGSSATAIVGGLVGANALAGSPLSQREIMNLAIEMEGHPDNVVPALLGGCQLSVKHQQDWVI	failed
MIDDMAVPLTFTDAAANKVKSLISEEENTDLKLRVYITGGGCSGFQYGFTFDEKVNDGDLTIEKSGVQLVIDPMSLQYLIGGTVDYTEGLEGSRFTVNNPNATSTCGCGSSFSI	not failed
MKDPLLNSLIYVSRYYGLANSPEALVNGLPLSDGKLTPFLLPRAAERAGLVAKENRAELEKISSLILPAILVLKGGDSCVLNSINMETREAEVTTLESGMVPISIPLEDLLEQYTGRYFLVKKQFR	not failed
EKEDSKTRGEKIKSDFFELLSNHHLDSQSRWSKVKDKVESDPRYKAVDSSSMREDLFKQYIEKIAKNLDS	not failed
